Here are results for three proteins from paper PMC7455699, “Rapid high-yield expression and purification of fully post-translationally modified recombinant clusterin and mutants” (Scientific Reports, 2020).

First the molecules themselves.
B1: clusterin purified from human plasma (natural protein)
chain 1: DQTVSDNELQEMSNQGSKYVNKEIQNAVNGVKQIKTLIEKTNEERKTLLSNLEEAKKKKEDALNETRESETKLKELPGVCNETMMALWEECKPCLKQTCMKFYARVCRSGSGLVGRQLEEFLNQSSPFYFWMNGDRIDSLLENDRQQTHMLDVMQDHFSRASSIIDELFQDRFFTREPQDTYHYLPFSLPHRRPHFFFPKSRIVR
chain 2: SLMPFSPYEPLNFHAMFQPFLEMIHEAQQAMDIHFHSPAFQHPPTEFIREGDDDRTVCREIRHNSTGCLRMKDQCDKCREILSVDCSTNNPSQAKLRRELDESLQVAERLTRKYNELLKSYQWKMLNTSSLLEQLNEQFNWVSRLANLTQGEDQYYLRVTTVASHTSDSDVPSGVTEVVVKLFDSDPITVTVPVEVSRKNPKFMETVAEKALQEYRKKHREE
notes: One 'monomer' is a single α-β structure joined by 5 disulfide bonds; The protein is N-glycosylated at six sites; also called pCLU; human plasma CLU
B2: wild type recombinant human clusterin with the C-tag at the C-terminus of the β-chain (natural protein)
chain 1: SLMPFSPYEPLNFHAMFQPFLEMIHEAQQAMDIHFHSPAFQHPPTEFIREGDDDRTVCREIRHNSTGCLRMKDQCDKCREILSVDCSTNNPSQAKLRRELDESLQVAERLTRKYNELLKSYQWKMLNTSSLLEQLNEQFNWVSRLANLTQGEDQYYLRVTTVASHTSDSDVPSGVTEVVVKLFDSDPITVTVPVEVSRKNPKFMETVAEKALQEYRKKHREE
chain 2: DQTVSDNELQEMSNQGSKYVNKEIQNAVNGVKQIKTLIEKTNEERKTLLSNLEEAKKKKEDALNETRESETKLKELPGVCNETMMALWEECKPCLKQTCMKFYARVCRSGSGLVGRQLEEFLNQSSPFYFWMNGDRIDSLLENDRQQTHMLDVMQDHFSRASSIIDELFQDRFFTREPQDTYHYLPFSLPHRRPHFFFPKSRIVR
notes: The protein is cleaved into α- and β-chains and is glycosylated; also called rCLU-CT; source: MEXi293E cells, transfected, secreted into protein-free medium, purified (Capture Select C-tag column); not shown: C-tag (EPEA), C-terminal, kept
B3: wild type recombinant human clusterin with a twin Streptag at the C-terminus of the α-chain (natural protein)
chain 1: SLMPFSPYEPLNFHAMFQPFLEMIHEAQQAMDIHFHSPAFQHPPTEFIREGDDDRTVCREIRHNSTGCLRMKDQCDKCREILSVDCSTNNPSQAKLRRELDESLQVAERLTRKYNELLKSYQWKMLNTSSLLEQLNEQFNWVSRLANLTQGEDQYYLRVTTVASHTSDSDVPSGVTEVVVKLFDSDPITVTVPVEVSRKNPKFMETVAEKALQEYRKKHREE
chain 2: DQTVSDNELQEMSNQGSKYVNKEIQNAVNGVKQIKTLIEKTNEERKTLLSNLEEAKKKKEDALNETRESETKLKELPGVCNETMMALWEECKPCLKQTCMKFYARVCRSGSGLVGRQLEEFLNQSSPFYFWMNGDRIDSLLENDRQQTHMLDVMQDHFSRASSIIDELFQDRFFTREPQDTYHYLPFSLPHRRPHFFFPKSRIVR
notes: The tag is separated from the inter-chain cleavage motif by a 4-glycine spacer; About 90-95% of the protein is cleaved into α- and β-chains, and it is glycosylated; also called rCLU-αC-ST; rCLU-ST; source: MEXi293E cells, transfected, secreted into protein-free medium, purified (Streptactin-XT); not shown: twin Streptag, C-terminal, kept

The series concerns the molecule itself. Nature of the series: mass photometry; proteins at 1 nM in PBS (pH 7.4), 10 µl analysed over 10 min; monomer (a single disulphide-linked α-β structure) to dimer (two non-covalently associated α-β structures).
With B1, the “percent of species in solution that is dimer” value (“percent of species” for short) was around 60% and the “stoichiometry N” value was 2.

On to B2, for which the “percent of species” value was around 60% and the “stoichiometry N” value was determined as 2.

For B3, the “percent of species” value is around 60% and the “stoichiometry N” value is 2.
